Tested on: Escherichia coli TOP10
Experiment: shrunken log2 fold change of peptide-encoding DNA abundance (4.5 h post-induction vs induction); higher = less antimicrobial activity (less host growth inhibition)
Details: time post-induction: 4.5 h; library: site-saturation at positions 5, 18, 19, 20
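Note: peptides expressed intracellularly from a pBAD plasmid library in pooled LB shake-flask culture, induced with 0.3% L-arabinose, DNA abundance read by NGS, three biological replicates, DESeq2 with apeglm shrinkage.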

Row | Sequence | shrunken log2 fold change
1 | RRIRKRPPRLPRPRPRPCHVPRP | -0.203
2 | RRIRSRPPRLPRPRPRPDWQPRP | -0.162
3 | RRIRCRPPRLPRPRPRPWCEPRP | -0.349
4 | RRIRQRPPRLPRPRPRPRIFPRP | -0.131
5 | RRIRYRPPRLPRPRPRPKNSPRP | -1.22
6 | RRIRDRPPRLPRPRPRPPMCPRP | -0.0883
7 | RRIRTRPPRLPRPRPRPRTHPRP | -0.0753
8 | RRIRYRPPRLPRPRPRPISSPRP | -0.262
9 | RRIRVRPPRLPRPRPRPAIMPRP | 0.191
10 | RRIRIRPPRLPRPRPRPHIWPRP | -0.582
11 | RRIRVRPPRLPRPRPRPGGEPRP | 0.386
12 | RRIRYRPPRLPRPRPRPFYQPRP | -0.224
13 | RRIRTRPPRLPRPRPRPVSCPRP | -0.206
14 | RRIRNRPPRLPRPRPRPCNAPRP | -0.0514
15 | RRIRPRPPRLPRPRPRPIRWPRP | -0.0338
16 | RRIRVRPPRLPRPRPRPHTQPRP | 0.00176
17 | RRIRDRPPRLPRPRPRPHVPPRP | -0.076
18 | RRIRYRPPRLPRPRPRPFTTPRP | 0.0402
19 | RRIRQRPPRLPRPRPRPSKVPRP | -0.133
20 | RRIRNRPPRLPRPRPRPACLPRP | 0.146
21 | RRIRPRPPRLPRPRPRPIVIPRP | -0.328
22 | RRIRHRPPRLPRPRPRPSAWPRP | 0.373
23 | RRIRARPPRLPRPRPRPKMPPRP | 0.114
24 | RRIRFRPPRLPRPRPRPWFLPRP | -1.15
25 | RRIRERPPRLPRPRPRPMEWPRP | 0.0338

Row | Sequence | shrunken log2 fold change
26 | RRIRGRPPRLPRPRPRPELRPRP | 1.71
27 | RRIRSRPPRLPRPRPRPENHPRP | -0.138
28 | RRIRVRPPRLPRPRPRPQNRPRP | 0.112
29 | RRIRYRPPRLPRPRPRPRGIPRP | -0.0542
30 | RRIRKRPPRLPRPRPRPAMSPRP | -0.146
31 | RRIRPRPPRLPRPRPRPLFYPRP | -0.383
32 | RRIRLRPPRLPRPRPRPDGLPRP | -0.115
33 | RRIRRRPPRLPRPRPRPTLHPRP | 0.534
34 | RRIRDRPPRLPRPRPRPEACPRP | 0.644
35 | RRIRSRPPRLPRPRPRPVEDPRP | -0.0519
36 | RRIRMRPPRLPRPRPRPPDTPRP | 1.84
37 | RRIRFRPPRLPRPRPRPEGFPRP | 0.518
38 | RRIRERPPRLPRPRPRPWHDPRP | -0.251
39 | RRIRARPPRLPRPRPRPDTVPRP | -0.125
40 | RRIRWRPPRLPRPRPRPDADPRP | 3.34
41 | RRIRWRPPRLPRPRPRPMKFPRP | -0.278
42 | RRIRIRPPRLPRPRPRPGWGPRP | 0.308
43 | RRIRSRPPRLPRPRPRPWYRPRP | -0.119
44 | RRIRIRPPRLPRPRPRPYHIPRP | -0.0511
45 | RRIRWRPPRLPRPRPRPFDPPRP | 0.0827
46 | RRIRDRPPRLPRPRPRPVKPPRP | -0.0934
47 | RRIRLRPPRLPRPRPRPTLAPRP | 0.423
48 | RRIRVRPPRLPRPRPRPQFHPRP | -0.186
49 | RRIRTRPPRLPRPRPRPVCHPRP | -0.173
50 | RRIRIRPPRLPRPRPRPWNYPRP | 0.0299

Row | Sequence | shrunken log2 fold change
51 | RRIRWRPPRLPRPRPRPHKSPRP | 0.0767
52 | RRIRFRPPRLPRPRPRPELPPRP | -0.0615
53 | RRIRPRPPRLPRPRPRPERYPRP | 0.378
54 | RRIRQRPPRLPRPRPRPTQAPRP | 0.186
55 | RRIRFRPPRLPRPRPRPLVFPRP | -0.204
56 | RRIRNRPPRLPRPRPRPPRNPRP | 0.196
57 | RRIRHRPPRLPRPRPRPFMTPRP | -0.188
58 | RRIRMRPPRLPRPRPRPHNRPRP | -0.172
59 | RRIRVRPPRLPRPRPRPPHNPRP | 0.154
60 | RRIRVRPPRLPRPRPRPHGQPRP | -0.0326
61 | RRIRQRPPRLPRPRPRPQRSPRP | 0.0623
62 | RRIRMRPPRLPRPRPRPISHPRP | -0.018
63 | RRIRNRPPRLPRPRPRPSENPRP | -0.296
64 | RRIRERPPRLPRPRPRPRPDPRP | 0.205
65 | RRIRHRPPRLPRPRPRPWHIPRP | -0.864
66 | RRIRCRPPRLPRPRPRPWFLPRP | -0.479
67 | RRIRFRPPRLPRPRPRPIMKPRP | -0.679
68 | RRIRERPPRLPRPRPRPQFNPRP | -0.167
69 | RRIRERPPRLPRPRPRPFICPRP | -0.36
70 | RRIRRRPPRLPRPRPRPFQWPRP | 0.194
71 | RRIRGRPPRLPRPRPRPEKSPRP | 0.0928
72 | RRIRTRPPRLPRPRPRPFEEPRP | 0.00896
73 | RRIRNRPPRLPRPRPRPEHCPRP | -0.0139
74 | RRIRIRPPRLPRPRPRPGYMPRP | -0.442
75 | RRIRRRPPRLPRPRPRPVLFPRP | 0.315

Row | Sequence | shrunken log2 fold change
76 | RRIRIRPPRLPRPRPRPWYNPRP | -0.343
77 | RRIRVRPPRLPRPRPRPWRCPRP | -0.0179
78 | RRIRYRPPRLPRPRPRPRIKPRP | -0.502
79 | RRIRARPPRLPRPRPRPNSGPRP | -0.0211
80 | RRIRIRPPRLPRPRPRPFSDPRP | -0.227
81 | RRIRTRPPRLPRPRPRPITDPRP | 0.177
82 | RRIRFRPPRLPRPRPRPNHGPRP | -0.4
83 | RRIRGRPPRLPRPRPRPISPPRP | -0.0176
84 | RRIRIRPPRLPRPRPRPIVYPRP | -0.383
85 | RRIRWRPPRLPRPRPRPPVCPRP | 0.15
86 | RRIRTRPPRLPRPRPRPQYMPRP | -1.01
87 | RRIRARPPRLPRPRPRPCFIPRP | -0.333
88 | RRIRYRPPRLPRPRPRPGECPRP | -0.489
89 | RRIRHRPPRLPRPRPRPTYTPRP | -0.00607
90 | RRIRRRPPRLPRPRPRPMVEPRP | -0.257
91 | RRIRRRPPRLPRPRPRPPTEPRP | 0.315
92 | RRIRERPPRLPRPRPRPYRPPRP | -0.41
93 | RRIRYRPPRLPRPRPRPHMLPRP | -1.09
94 | RRIRGRPPRLPRPRPRPIPGPRP | 0.107
95 | RRIRGRPPRLPRPRPRPEMAPRP | 2.8
96 | RRIRNRPPRLPRPRPRPKHPPRP | 0.111
97 | RRIRARPPRLPRPRPRPCIPPRP | 2.51
98 | RRIRRRPPRLPRPRPRPVDEPRP | 0.0882
99 | RRIRARPPRLPRPRPRPHTCPRP | -0.29
100 | RRIRNRPPRLPRPRPRPQCWPRP | 0.057

Row | Sequence | shrunken log2 fold change
101 | RRIRLRPPRLPRPRPRPIAPPRP | 0.372
102 | RRIRYRPPRLPRPRPRPGNEPRP | -0.229
103 | RRIRWRPPRLPRPRPRPGVMPRP | 0.477
104 | RRIRNRPPRLPRPRPRPQDLPRP | -0.11
105 | RRIRLRPPRLPRPRPRPINVPRP | -0.54
106 | RRIRNRPPRLPRPRPRPRVTPRP | 0.0249
107 | RRIRPRPPRLPRPRPRPKDTPRP | -0.173
108 | RRIRTRPPRLPRPRPRPHAIPRP | 0.103
109 | RRIRQRPPRLPRPRPRPSCPPRP | -0.037
110 | RRIRPRPPRLPRPRPRPTQFPRP | 0.274
111 | RRIRGRPPRLPRPRPRPHTYPRP | -0.0875
112 | RRIRARPPRLPRPRPRPMLQPRP | 0.454
113 | RRIRIRPPRLPRPRPRPRKSPRP | -0.169
114 | RRIRWRPPRLPRPRPRPWYYPRP | -0.321
115 | RRIRWRPPRLPRPRPRPDNMPRP | -0.0443
116 | RRIRYRPPRLPRPRPRPTIGPRP | -0.31
117 | RRIRMRPPRLPRPRPRPQTKPRP | 0.205
118 | RRIRMRPPRLPRPRPRPRWQPRP | 0.146
119 | RRIRLRPPRLPRPRPRPWDKPRP | -0.0731
120 | RRIRLRPPRLPRPRPRPQTRPRP | 0.08
121 | RRIRSRPPRLPRPRPRPENQPRP | -0.0853
122 | RRIRRRPPRLPRPRPRPQPPPRP | 0.413
123 | RRIRCRPPRLPRPRPRPSNHPRP | -0.718
124 | RRIRYRPPRLPRPRPRPLCMPRP | -0.795
125 | RRIRFRPPRLPRPRPRPIMDPRP | -0.212

Source: the supplement of paper PMC9112550, “Optimization of the antimicrobial peptide Bac7 by deep mutational scanning” (BMC Biology, 2022)
